Laboratory results as given in paper doi:10.1101/2024.11.27.625426 (bioRxiv, 2024).

B1: NCS.1.1 mAb (IgG) (antibody, V domains shown)
VH: QVQLQESGPRLVKPSETLSLTCSVSGESISSGGYYWTWIRQHPGKGLEWIGNIFDTGSTDYSPSLKTRLTISIDTSKNQFYLRLNSATAADTAVYYCARVGFSLETDRPYYLGLDVWGQGTTVTVSS
VL: DIVMTQSPLSLPVTPGEPASISCRSSQSLLHSNGYTYLDWYLQKPGQSPQLLISFTSNRASGVPDRFSGSGSGTYFTLKISRVEAEDVGVYYCMQAVQTPWTFGQGTKVEIK
notes: copies: 2 + 2
B2: NCS.1.3 mAb (IgG) (antibody, V domains shown)
VH: QVQLQESGPRLVKPSETLSLTCSVSGESISSGGYYWTWIRQHPGKGLEWIGNIFDTGSTDYSPSLKTRLTISIDTSKNQFYLRLTSATAADTAVYYCARVGFSLETDRPYYLGLDVWGQGTTVTVSS
VL: DIVMTQSPLTLPVTPGEPASISCRSSQSLLHSNGYTYLDWYLQKPGQSPQLLIYFASNRASGVPDRFSGSGSGTYFTLKISRVEAEDVGVYYCMQAVQSPWTFGQGTKVEIK
notes: copies: 2 + 2

Target: unmodified NA of A/Vietnam/1203/2004 (VN04, H5N1) (Influenza A virus A/Vietnam/1203/2004 …, UniProt Q6DPL2)
Experiment: ELISA
Details: both partners purified

Binder	binding result
B1	binds
B2	binds
